According to patent publication US20140057830A1 (COMPLIX, published 2014):

T1: human IL-23 (human, UniProt Q9NPF7 20-189; P29460 23-328)
T1 construct: Heterodimer p19/p40; in the ELISA captured on the plate through a biotinylated anti-p40 antibody (clone C8.6); also called cytokine IL-23 (eBioscience, 34-8239-85)
T1 sequence (looked up) 1: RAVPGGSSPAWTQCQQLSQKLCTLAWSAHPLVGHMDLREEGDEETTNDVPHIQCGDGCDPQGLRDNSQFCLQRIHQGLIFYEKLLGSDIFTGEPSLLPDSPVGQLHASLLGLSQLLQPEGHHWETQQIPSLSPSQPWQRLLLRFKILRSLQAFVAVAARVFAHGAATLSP
T1 sequence (looked up) 2: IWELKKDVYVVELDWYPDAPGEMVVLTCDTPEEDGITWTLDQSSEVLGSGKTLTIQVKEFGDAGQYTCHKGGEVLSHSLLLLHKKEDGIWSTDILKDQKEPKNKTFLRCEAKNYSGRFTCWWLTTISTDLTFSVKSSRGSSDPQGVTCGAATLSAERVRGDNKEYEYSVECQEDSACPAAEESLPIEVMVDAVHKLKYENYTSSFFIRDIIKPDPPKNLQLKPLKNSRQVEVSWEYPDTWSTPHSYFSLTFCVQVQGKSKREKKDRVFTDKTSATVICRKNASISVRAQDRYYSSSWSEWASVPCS

B1: SEQ ID NO 77 (designed binder)
chain: GSIEQIQKGIAAIQEWIATIQKRIYAMTGGSGGSGGGSIEQIQKQIAAIQKQIAAIQKQIYAMTGSGGGGSGGSIEQIQKQIRAITIQIIAIIQQIWAMTP
notes: Alphabody, AC12 library clone
B2: SEQ ID NO 104 (designed binder)
chain: GSIEQIQKNIAYIQERIATIQKKIYRMTGGSGGSGGGGSGGSGGGSIEQIQKQIAAIQKQIAAIQKQIYAMTGSGGGGSGGSGGGGSGGSIEQIQKQIGAIAEQILAIVKQIRAMTP
notes: Alphabody, AC11b library clone
B3: SEQ ID NO 95 (designed binder)
chain: GSIEQIQKPIALIQERIATIQKLIYGMTGGSGGSGGGGSGGSGGGSIEQIQKQIAAIQKQIAAIQKQIYAMTGSGGGGSGGSGGGGSGGSIEQIQKQISAIAEQILAISKQIWAMTP
notes: as for B2
B4: SEQ ID NO 96 (designed binder)
chain: GSIEQIQKWIACIQECIAGIQKEIYIMTGGSGGSGGGGSGGSGGGSIEQIQKQIAAIQKQIAAIQKQIYAMTGSGGGGSGGSGGGGSGGSIEQIQKQIRAISEQIYAIIKQISAMTP
notes: as for B2
B5: SEQ ID NO 99 (designed binder)
chain: GSIEQIQKPIAEIQEIIARIQKKIYIMTGGSGGSGGGGSGGSGGGSIEQIQKQIAAIQKQIAAIQKQIYAMTGSGGGGSGGSGGGGSGGSIEQIQKQISAIGEQIFAIVKQIYAMTP
notes: as for B2
B6: SEQ ID NO 102 (designed binder)
chain: GSIEQIQKIIASIQEPIARIQKGIYRMTGGSGGSGGGGSGGSGGGSIEQIQKQIAAIQKQIAAIQKQIYAMTGSGGGGSGGSGGGGSGGSIEQIQKQIGAIAEQILAIFKQIRAMTP
notes: as for B2
B7: SEQ ID NO 103 (designed binder)
chain: GSIEQIQKPIASIQELIAMIQKAIYWMTGGSGGSGGGGSGGSGGGSIEQIQKQIAAIQKQIAAIQKQIYAMTGSGGGGSGGSGGGGSGGSIEQIQKQIVAISEQIMAIIKQIGAMTP
notes: as for B2
B8: SEQ ID NO 105 (designed binder)
chain: GSIEQIQKRIARIQEKIAWIQKPIYQMTGGSGGSGGGGSGGSGGGSIEQIQKQIAAIQKQIAAIQKQIYAMTGSGGGGSGGSGGGGSGGSIEQIQKQIRAIREQIGAILKQIKAMTP
notes: as for B2
B9: SEQ ID NO 107 (designed binder)
chain: GSIEQIQKPIARIQETIAIIQKTIYRMTGGSGGSGGGGSGGSGGGSIEQIQKQIAAIQKQIAAIQKQIYAMTGSGGGGSGGSGGGGSGGSIEQIQKQITAIREQIRAIWKQIPAMTP
notes: as for B2
B10: SEQ ID NO 114 (designed binder)
chain: GSIEQIQKRIARIQEPIAGIQKRIYMMTGGSGGSGGGGSGGSGGGSIEQIQKQIAAIQKQIAAIQKQIYAMTGSGGGGSGGSGGGGSGGSIEQIQKQIRAIAEQIVAIAKQIVAMTP
notes: as for B2
B11: SEQ ID NO 122 (designed binder)
chain: GSIEQIQKRIAPIQESIAGIQKRIYRMTGGSGGSGGGGSGGSGGGSIEQIQKQIAAIQKQIAAIQKQIYAMTGSGGGGSGGSGGGGSGGSIEQIQKQIRAITEQIGAILKQIFAMTP
notes: as for B2

biological target: T1, human IL-23; experiment: phage ELISA; IL-23 captured by anti-p40 antibody
Procedure: The set-up of the ELISA was as follows. Neutravidin was immobilized on the plate at a concentration of 0.010 mg/ml in PBS (0.100 ml) for 1 hour at room temperature (RT). Plates were washed 5 times with PBS containing 0.05% Tween 20 (PBST) for 5 min. Subsequently, 0.1 ml Biotinylated anti-p40 antibody (100 nM) was added to the plates in PBS containing 0.1% BSA and incubated overnight at 4° C. or at RT for 1 hour. After incubation, plates were washed 5 times with PBST and blocked with PBS containing 0.1% BSA and 0.5% gelatin (0.120 ml/well) for at least 1 hour at room temperature or overnight at 4° C. After washing 5 times with PBST, 100 nM IL-23 (target) was added to 0.1 ml PBS, 0.1% BSA. For individual negative controls no IL-23 was added (background).
In the meantime, the bacteria plates were centrifuged at 1700 rpm for 10 min to pellet the bacteria. Plates with the immobilized IL-23 were washed 5 times with PBST and 0.050 ml of PBS with 0.2% BSA were added to the plate together with 0.050 ml of the bacterial culture supernatant containing phage. Plates were incubated for 1 to 1.5 hours at room temperature while shaking. Shaking of the plates enhanced the ELISA signals.

Binder | binding result
B1 | binds
B2 | binds
B3 | binds
B4 | binds
B5 | binds
B6 | binds
B7 | binds
B8 | binds
B9 | binds
B10 | binds
B11 | binds
